Patent US12692524B2, “Sialyltransferases and their use in producing sialylated oligosaccharides” (Chr. Hansen A/S, priority 2017, dated 2026)

Assays:
[1] = In vitro sialylation of LNT by protein extracts, LST-a/-b quantified by LC-MS/MS; type: biochemical; conditions: 5 mM LNT, 10 mM CMP-Neu5Ac, 16 hours, LC-MS/MS; relative quantity; n.d.: not detectable
Summary of the method: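 E. coli BL21(DE3) crude extracts overexpressing sialyltransferases (IPTG 0.3 mM, 12–16 h at 30 °C) incubated 16 h with 5 mM LNT and 10 mM CMP-Neu5Ac in 50 mM Tris-HCl pH 7.5, 5 mM MgCl2. LST-a and LST-b measured by HILIC LC-MS/MS, MRM in ESI negative mode, against commercial standards.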

[2] = In vivo screening in E. coli #1363/#1730 with lactose as acceptor, sialyllactose identified by TLC; type: cell-based, Escherichia coli BL21(DE3); conditions: 1.5 mM lactose, 72 to 96 hours, qualitative via TLC
Summary of the method: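 E. coli BL21(DE3) #1363/#1730 expressing sialyltransferases were grown at 30 °C in mineral salts medium with 2% glucose and induced with 0.3 mM IPTG. After 1 h, 1.5 mM lactose was added, plus 1.5 mM sialic acid for #1730, and incubation ran 72–96 h. Cell lysates were analysed by silica TLC with thymol staining.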

| Molecule | Relative efficacy of sialyltransferases regarding in-vitro production of sialyllacto-N-tetraoses: LST-a [1] | Production of sialyllactose in-vivo [2] |
| --- | --- | --- |
| SiaT31: sialyltransferase of Alistipes sp. CAG:268, acc. CDC95697, SEQ ID NO: 22 (protein, listed as Alistipes sp.) MASCSDDDKEQTGFQIDDGSGFLSLDAAARSGSIAITANNSWSVTQDKDSEWLTLSTTSGAAGRTEIGIMLEANPGEARNAGLTFNSGGRTYPFVITQSAHVTADFDDADHCFYITFGTLPTLYAGLHVLSHDKPSYVFFQRSQTFRPEEFPAHAEVTIAADPSANATDEDMERMRTAMKQQILKINVEDPTAVFGLYVDDLRCGIGYDWFVAQGIDSTRVKVSMLSDGTGTYNNFYNYFGDPATAEQNWENYAAQVEALDWQHGGRFPETRMPDGFDFYEWPYYLATRPNYRLVLQDDDLLEATSPFMTERLQQMRTESKQPYELLASLPAEARQRFFRMAGFDYDAFAALFDASPKKNLVIIGTSHTSEESEAQQAAYVERIIGDYGTAYDIFFKPHPADSSSSNYEERFEGLTLLPGQMPFEIFVWSLLDKVDLIGGYSSTVFLTVPVEKTGFIFAANAESLPRPLNVLFRNAEHVRWIQ | 4 | 3′-SL |
| SiaT41: sialyltransferase of Actinobacillus suis ATCC 33415, acc. AIJ32009, SEQ ID NO: 24 (protein, listed as Actinobacillus suis) MERTPQLQAVDIYIDFATIPSLSYFLHFLKHKHDDQRLRLFSLARFEMPQTLIEQYEGIIQFSRNVEHNVEPLLEQLQTILSQEGKQFELHLHLNLFHSFEMFLNLSPTYTQYKEKISKIVLHLYDDGSEGVMKQYQLQKSSSLVQDLAATKASLVSLFENGEGSFSQIDLIRYVWNAVLETHYYLLSDHFLLDEKLQPLKAELGHYQLLNLSAYQYLSSEDLLWLKQILKIDTELESLMQKLTAQPVYFFSGTTFFNISFEDKQRLANIHAILIREHLDPNSQLFIGEPYLFVFKGHPNSPEINQALREYYPNVIFLPENIPFEILTLLGFSPQKIGGFASTIHVNSEQSKLAKLFFLTSTDEQERQLSDGYIKQYALAQAMLEMQLVSQEQVYYCSLSS | 3 | 3′-SL |
| SiaT39: sialyltransferase of Alistipes shahii WAL 8301, acc. YP_007816735, SEQ ID NO: 23 (protein, listed as Alistipes shahii) MDDGTPSVSINGGTDFLSLDHLARSGKITVNAPAPWSVTLAPENYGQDEKPDWLTLSAEEGPAGYSEIDVTFAENPGPARSASLLFSCDGKTLAFTVSQSAGGTGFDAPDYYFYISVGTMPTLYSGLHLLSHDKPSYVSYERASTFDAAEFPDRAFVYPVADPTGHATNEELRAMSEAMKRRILEINAEDPTAVFGLWVDDLRCRLGYDWFVAQGIDSARVKVTMLSDGTATYNNFHNYFGDAATAEQNWNDYAAEVEALDWNHGGRYPETRAPEEFASYTWPYYLSTRPDYRLMLQNSSLMESSCPFIADRLAAMKMESVQPYELLTALPEASKQQFYRMAKFDYARFAGLFDLSPKKNLIIIGTSHSSAASEQQQAAYVERIIQQYGSDYDIFFKPHPADSSSAGYPDRFEGLTLLPGQMPFEIFVWALLDKIDMIGGYPSTTFISVPLDKVGFLFAADADGLVRPLNILFRDAANVEWIQ | 4 | 3′-SL |
| SiaT37: sialyltransferase of Campylobacter jejuni strain 81-176, acc. AAL09368, SEQ ID NO: 16 (protein, listed as Campylobacter jejuni) MKKVIIAGNGPSLKEIDYSRLPNDFDVFRCNQFYFEDKYYLGKKCKAVFYTPNFFFEQYYTLKHLIQNQEYETELIMCSNYNQAHLENENFVKTFYDYFPDAHLGYDFFKQLKEFNAYFKFHEIYFNQRITSGVYMCAVAIALGYKEIYLSGIDFYQNGSSYAFDTKQENLLKLAPDFKNDRSHYIGHSKNTDIKALEFLEKTYKIKLYCLCPNSLLANFIELAPNLNSNFIIQEKNNYTKDILIPSSEAYGKFSKNINFKKIKIKENVYYKLIKDLLRLPSDIKHYFKGK | 40 | 3′-SL |
| SiaT30: sialyltransferase of Haemophilus parahaemolyticus HK385, acc. EIJ71207, SEQ ID NO: 19 (protein, listed as Haemophilus parahaemolyticus) MTEQYIKNVEVYLDYATIPTLNYFYHFTENKDDIATIRLFGLGRFNISKSIIESYPEGIIRYCPIIFEDQTAFQQLFITLLTEDSFCQYRFNFHINLFHSWKMLIPLLHIIWQFKHKVLDIKLNFYDDGSEGLVTLSKIEQNYSSEILQKIIDIDSQSFYADKLSFLDEDIARYLWNSLFESHYYLLNDFLLKNEKLSLLKNSIKYCHIMDLERYLQFTQEEKDFFNELLGINIQSLEDKIKIFQQKKTFIFTGTTIFSLPKEEEETLYRLHLNAILNYIHPNGKYFIGDGFTLVIKGHPHQKEMNSRLEKSFEKAVMLPDNIPFEILYLIGCKPDKIGGFVSTSYFSCDKKNIADLLFISARQEEVRKNDYLFNIQYQLRDMMIKTGFIQEEKTHFYSDIPIFIS | 17 | 3′-SL |
| SiaT32: sialyltransferase of Alistipes sp. AL-1, acc. WP_032134786, SEQ ID NO: 15 (protein, listed as Alistipes sp.) MALLSGTAACSDDEVSQNLIVINGGEHFLSLDGLARAGKISVLAPAPWRVTKAAGDTWFRLSATEGPAGYSEVELSLDENPGAARSAQLAFACGDAIVPFRLSQGALSAGYDSPDYYFYVTFGTMPTLYAGIHLLSHDKPGYVFYSRSKTFDPAEFPARAEVTTAADRTADATQAEMEAMAREMKRRILEINSADPTAVFGLYVDDLRCRIGYDWFVAQGIDSARVKVSMLSDGTGTYNNFYNYFGDAATAEQNWESYASEVEALDWNHGGRYPETRSLPEFESYTWPYYLSTRPDYRLVVQDGSLLESSCPFITEKLGEMEIESIQPYEMLSALPESSRKRFYDMAGFDYDKFAALFDASPKKNLIIIGTSHADDASARLQRDYVARIMEQYGAQYDVFFKPHPADTTSAGYETEFPGLTLLPGQMPFEIFVWSLIDRVDMIGGYPSTVFLTVPVDKVRFIFAADAASLVRPLNILFRDATDVEWMQ | 64 | 3′-SL, 6′-SL |
| SiaT34: sialyltransferase of Pasteurella multocida PM70, acc. NC_002663, SEQ ID NO: 6 (protein, listed as Pasteurella multocida) MDKFAEHEIPKAVIVAGNGESLSQIDYRLLPKNYDVFRCNQFYFEERYFLGNKIKAVFFTPGVFLEQYYTLYHLKRNNEYFVDNVILSSFNHPTVDLEKSQKIQALFIDVINGYEKYLSKLTAFDVYLRYKELYENQRITSGVYMCAVAIAMGYTDIYLTGIDFYQASEENYAFDNKKPNIIRLLPDFRKEKTLFSYHSKDIDLEALSFLQQHYHVNFYSISPMSPLSKHFPIPTVEDDCETTFVAPLKENYINDILLPPHFVYEKLGVDKLAAALEHHHHHH | 2.34 × 10^3 | 3′-SL |
